In patent publication US20070066547 one finds activity (log10 IU/ml reduction), IC50 and binding signal (% inhibition of mAb 17b binding) data, which are given here for two sequences.

pIC50: −log10 of the molar value.

In data set [1] the test system is HIV-1 Ba-L virus (gp120) (Human immunodeficiency virus 1 (Ba-L)). Put plainly: cell_activity. Conditions: 2'-F pyrimidines (U, C).
In data set [2] the test system is HIV-1 Ba-L break-through clones after B4 selection (gp120) (Human immunodeficiency virus 1 (Ba-L)). Put plainly: cell_activity. Conditions: 2'-F pyrimidines (U, C); 100 nM aptamer; all four break-through clones neutralised.
The subject of data set [3] is gp120 envelope glycoprotein, HIV-1 Ba-L (SU) (Human immunodeficiency virus 1 (Ba-L)). Put plainly: competition. To be noted: 2'-F pyrimidines (U, C); at highest aptamer concentration, no CD4; 48d inhibited at nM with CD4; CG10 and sCD4 binding not inhibited.

In data set [1] (100 nM aptamer, PBMC TCID50), “AUGACGUACCCGCACAAGCCACCACAAGUCUUAAUCGCGCCACCCUUGC [B84]” came in with an activity (log10 IU/ml reduction) greater than 4.

The term pIC50 denotes the negative decadic logarithm of the IC50, by convention in mol/L. Read a high pIC50 as a small IC50. “GAGCGGUUAAGGGAGAUUUAGGCAGCAGCUUGGACAGUGUAUCGGCUGAG [B4]” gave an activity (log10 IU/ml reduction) in data set [2] greater than 4. The sequence further showed a negative-log IC50 (pIC50) in data set [1] (neutralisation in human PBMC, about 5 log10 at 100 nM) greater than 9.00. Besides, the binding signal (% inhibition of mAb 17b binding) in data set [3] is 50.
